Measurements from patent US10640556B2, “Anti amphiregulin antibodies, compositions comprising same and uses thereof” (Yeda Research and Development Co. Ltd., priority 2015, dated 2020).

Tests used:
[1] = molecular target: T1, murine AREG (Mus musculus, UniProt P31955); assay: ELISA on plates coated with murine AREG; type: binding
T1 construct: purchased Peprotech
T1 sequence (P31955 94-191 limits assumed): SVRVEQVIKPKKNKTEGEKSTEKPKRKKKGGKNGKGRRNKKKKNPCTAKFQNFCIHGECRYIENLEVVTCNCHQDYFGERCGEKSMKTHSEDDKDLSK
Experimental: FIG. 9A—96 well plates were coated with the indicated ligands (400 ng/mL), including a murine HB-EGF fused to thioredoxin. Plates were incubated for 2 hours with 3 different mAbs specific to AREG (as indicated). Thereafter, wells were incubated for two hours with an anti-mouse antibody conjugated to HRP, followed by a 30 minute incubation with ATBS. Signals were determined using an ELISA reader (set at 415 nm). […] Thereafter, wells were incubated for two hours with an anti-mouse antibody conjugated to HRP, followed by a 30-min incubation with ATBS. Signals were determined using an ELISA reader (set at 415 nm). […] 96-well plates were coated with decreasing concentrations (400, 200, 100, 50, 25 and 10 ng/mL) of the indicated 3 ligands, and then incubated for 2 hours with three different mAbs specific to AREG (AR30, AR37 and AR558) at […]. Thereafter, wells were incubated for two hours with an anti-mouse antibody conjugated to HRP, followed by a 20-min incubation with ATBS. Signals were determined using an ELISA reader (set at 420 nm).

[2] = system: MCF10A cells; assay: MTS proliferation assay of MCF10A cells; type: cell-based, human; conditions: 72 h, absence or presence of AREG, relatively high mAb concentrations
Experimental: Proliferation assays using MTS were performed on MCF10A cells (1,000 cells per well). C ells were plated on the day before and treated for 72 h with the indicated mAbs (1, 5, 10, 20 or 50 ug/mL). Increasing concentrations of the indicated mAbs (either alone or in combination with AREG) were used in medium supplemented with 1% serum and AREG (either at 10 or 100 ng/mL).

[3] = molecular target: T2, human AREG (Homo sapiens, UniProt P15514); assay: Antigenic determinant comparison of anti-AREG mAbs; type: binding; conditions: data not shown
T2 sequence (P15514 101-198 limits assumed): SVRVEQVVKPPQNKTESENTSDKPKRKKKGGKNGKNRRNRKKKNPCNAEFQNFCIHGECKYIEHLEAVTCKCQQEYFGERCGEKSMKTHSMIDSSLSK

[4] = system: Cal-27 human head and neck cancer cells; assay: Cal-27 head and neck tumor xenograft in nude mice; type: in vivo; conditions: Cal-27 tumors, 300 μg per injection intraperitoneally twice a week
Experimental: Female nude mice were inoculated subcutaneously with Cal-27 human head and neck cancer cells (2×10^6). Once tumors became palpable (5-7 days) mice were randomized and intraperitoneally injected with saline (Control), or with anti-AR mAbs: AR30, AR37 or AR558 (each at 300 μg per injection). Mice were treated with mAbs twice a week and tumor volume was followed. Shown are averages and SD values from at least 5 mice per group.
To test the ability of anti-AREG antibodies to reduce growth of human tumor cells implanted in immunocompromised mice, Cal 27 tumor cells were used which were inoculated subcutaneously and randomized for treatment after tumors became palpable. […] Furthermore, studies testing pairs of two mAbs illustrate their enhanced anti-tumor activities (data not shown), this can be attributed to the fact that the mAbs bind to distinct antigenic determinants of amphiregulin.

[5] = system: EGFR; assay: AREG-induced EGFR phosphorylation in HeLa cells (immunoblot); type: cell-based, human; conditions: AREG 100 ng/ml, mAb 0.1-50 μg/ml, FIG. 10A
Experimental: FIGS. 6A-6F illustrate AR30, an anti-AREG monoclonal antibody, that inhibits auto-phosphorylation of EGFR. FIG. 6A is a photograph of a Coomassie blue staining of an acrylamide gel showing a purified fraction of AREG isolated from bacteria and purified on a NiNTA column. The molecular weight marker lane indicates a 15 kilodalton band; FIG. 6B, cells were seeded in a 24 well plate, washed and incubated with increasing concentrations of the purified TRX-AREG fusion protein (8.5, 85, 850, 8500 ng/ml). […] Following a 10-min long incubation, the cells were lysed and cleared extracts immunoblotted (IB) with an anti-phosphotyrosine antibody (PY-99); FIG. 6C, 96 well plates were coated with the indicated ligands (0.1 μg/ml), and then incubated for 3 hours with three different mAbs specific to AREG. Thereafter, wells were incubated for two hours with an anti-mouse antibody conjugated to HRP, followed by a 30 minutes incubation with ATBS. […] Serum from non-immunized mice was used as a negative control; FIG. 6E, HeLa cells were pre-incubated with (or without) mAb AR30 (20 μg/mL) and increasing concentrations of AREG. Thereafter, whole cell lysates were immunoblotted (IB) using an antibody specific to the phosphorylated form of EGFR (tyrosine 1068) or an antibody to EGFR; and FIG. 6F, HeLa cells were incubated with (or without) AREG (100 ng/mL) in the presence of increasing concentrations of mAb AR30 (5, 10, 20 and 50 μg/mL). Thereafter, cells were lysed and cleared extracts immunoblotted (IB) using the indicated antibodies.
FIG. 10A illustrates that anti-AREG mAbs inhibit ligand-induced activation of EGFR. HeLa cells were incubated with (or without) AREG (100 ng/ml) in the presence of increasing concentrations of mAb AR30, mAb AR 37 or mAb AR558 (0.1, 0.2, 0.5, 0.75, 1.5, 3.5, 6.25, 12.5, 25 and 50 μg/ml). Thereafter, cells were lysed and cleared extracts immunoblotted (IB) using the indicated antibodies, including an antibody specific to the phosphorylated (active) for of EGFR (pEGFR).

B1: AR37: anti-AREG monoclonal antibody from AREG knockout mice; heavy chain SEQ ID NO: 62, light chain SEQ ID NO: 93 (antibody)
heavy: EVQLVESGGDLVKPGGSLKLSCAASGFTFSNSGMXWFRLTPDKRLEWVATISSGSTYTFYPDTVKGRFIISRXNAKNTLYLQMSSLKSEDTAIYYCVREIWPVWGAGTTITVSSAKT
light: QAVVTQESALSTSPGETVTLTCRSSTGAVTTSNYANWVQEKPDHLFTGLLGDTDNRPPGVPARFSGSLLGDKAALTITGAQTEDEAIYFCALWYSNHWVFGGGTKLTVL
modifications: not fully specified; AR37 heavy chain IgG complete amino acids coding sequence; (35)..(35) Xaa can be any naturally occurring amino acid; (73)..(73) Xaa can be any naturally occurring amino acid; AR37 light chain (IgG) complete amino acids coding sequence
**Q.** Which “recognition of murine AREG (ELISA)” value ([1]; ligand coated at 400 ng/mL, FIG. 9A) does the source give for B1 here?
**A.** recognized the murine molecule better than the other two mAbs tested

**Q.** What about the “recognition of murine AREG (ELISA)” value ([1]; ligand coated at 400-10 ng/mL, FIG. 9C) of the same molecule?
**A.** recognised the murine molecule

**Q.** What about the inhibition of proliferation [2] of the same molecule?
**A.** Moderate inhibition

**Q.** And the antigenic determinant targeted [3]?
**A.** engages a different determinant of human AREG

**Q.** And the tumor growth [4]?
**A.** comparably inhibit tumor growth

**Q.** What about the “AREG-induced phosphorylation of EGFR” value [5] of the same molecule?
**A.** low concentrations of the antibodies were sufficient for blocking
